We go through 10 molecules from paper PMC5818060, “A CK1 FRET biosensor reveals that DDX3X is an essential activator of CK1ε” (Journal of Cell Science, 2018).

A word on the Kd: it is the concentration at which binding is half-saturated.

Conditions in all cases: both partners purified
Series [1] addresses T1, His-DDX3X^414-582 (human, UniProt O00571 414-582).
T1 construct: DEAD box RNA helicase 3 X-linked (DDX3X), human, UniProt O00571, C-terminal helicase domain, aa 414-582; Named without the His tag in the BLItz methods; also called C-terminal helicase domain of DDX3X; source: dialyzed in 50 mM HEPES pH 8 for ELISA and FTS
Nature of the series: fluorescence thermal shift (FTS) assay; 10 µM His-DDX3X^414-582, 20 µM peptide, 50 mM HEPES pH 8, 10x SYPRO-Orange; change of melting temperature.

Series [2] concerns the target T1, His-DDX3X^414-582. Nature of the series: ELISA; His-DDX3X^414-582 coated on MaxiSorp plates (0.01 µg/µl, 100 mM sodium carbonate pH 9.6, 4°C overnight); biotinylated peptides 1 µg/well, 2.5 h at room temperature; detection with HRP-streptavidin. On the technique in general: ELISA stands for enzyme-linked immunosorbent assay.
Series [3] addresses T1, His-DDX3X^414-582. Nature of the series: fluorescence thermal shift (FTS) assay; FTS with varying concentrations of peptide; melting temperatures fitted to single site or simple cooperative ligand binding, preferred model chosen.
The target of another series is T2, Flag-DDX3X (human, UniProt O00571 1-662).
T2 construct: DEAD box RNA helicase 3 X-linked (DDX3X), human, UniProt O00571, full length; pCS-based vector with N-terminal Flag tag; purification as in Cruciat et al., 2013; also called wild-type DDX3X; DDX3X WT; source: HEK293T, transfected, purified on Flag beads (high-salt wash, eluted with Flag peptide); not shown: Flag, N-terminal, kept
T2 sequence (O00571 whole entry): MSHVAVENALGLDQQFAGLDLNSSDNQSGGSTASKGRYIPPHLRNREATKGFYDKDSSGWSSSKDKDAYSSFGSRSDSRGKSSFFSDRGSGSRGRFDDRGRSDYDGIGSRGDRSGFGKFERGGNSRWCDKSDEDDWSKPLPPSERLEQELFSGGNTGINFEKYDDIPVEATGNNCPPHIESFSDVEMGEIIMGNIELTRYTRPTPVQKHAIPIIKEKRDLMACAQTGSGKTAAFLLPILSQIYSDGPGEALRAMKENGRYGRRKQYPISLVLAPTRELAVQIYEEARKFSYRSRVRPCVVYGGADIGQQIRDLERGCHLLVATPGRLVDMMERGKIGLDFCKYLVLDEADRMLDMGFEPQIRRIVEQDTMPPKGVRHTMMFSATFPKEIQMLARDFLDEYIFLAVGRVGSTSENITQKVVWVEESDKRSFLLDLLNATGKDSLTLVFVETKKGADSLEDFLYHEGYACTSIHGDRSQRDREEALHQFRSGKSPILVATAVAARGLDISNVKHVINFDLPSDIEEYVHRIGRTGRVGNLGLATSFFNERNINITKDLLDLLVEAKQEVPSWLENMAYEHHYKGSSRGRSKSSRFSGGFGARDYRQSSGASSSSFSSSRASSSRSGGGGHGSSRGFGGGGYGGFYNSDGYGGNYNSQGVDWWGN
Nature of the series: pull-down; purified Flag-DDX3X proteins, incubated with total RNA where indicated, subjected to bead-coupled HA-CK1ε; Western blot.

Ends that are not written are not given here. * marks the point of attachment. Biotin = O=C1N[C@H]2[C@H](CS[C@H]2CCCCC(=O)*)N1

T1 sequence (O00571 414-582): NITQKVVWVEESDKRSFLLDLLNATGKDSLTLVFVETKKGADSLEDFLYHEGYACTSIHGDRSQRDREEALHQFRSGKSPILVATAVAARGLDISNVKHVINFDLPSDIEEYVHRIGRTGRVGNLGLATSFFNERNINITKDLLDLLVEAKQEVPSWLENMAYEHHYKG

B1: CK1ε-derived peptide ε-41 (peptide)
peptide: Biotin-SGSGCVKTKHPQLHIESKF
notes: four amino acid spacer between biotin and the peptide; casein kinase 1 epsilon (CK1ε), human, UniProt P49674; source: synthetic peptide (peptide library), pre-dissolved in DMSO; not shown: biotin, N-terminal, kept
In the case of B1, the “increase of the melting temperature (Tm) of His-DDX3X^414-582” value (“increase of the melting temperature” below) in the series with His-DDX3X^414-582 [1] stood at 6.3 °C.

B2: CK1δ-derived peptide δ-31 (peptide)
peptide: Biotin-SGSGAGEEVAIKLECVKTK
notes: four amino acid spacer between biotin and the peptide; casein kinase 1 delta (CK1δ), human, UniProt P48730; source: synthetic peptide (peptide library), pre-dissolved in DMSO; not shown: biotin, N-terminal, kept
For the molecule B2, the binding result with His-DDX3X^414-582 [2] is “binds”.

B3: CK1ε-derived peptide ε-241 (peptide)
peptide: Biotin-SGSGCKGYPSEFSTYLNFC
modifications: cysteine pairing not given here
notes: as for B1
Regarding B3, the binding result with His-DDX3X^414-582 [2] is “binds”.

B4: CK1ε-derived peptide ε-61 (peptide)
peptide: Biotin-SGSGGGVGIPSIKWCGAEG
notes: as for B1
For the molecule B4, the binding result with His-DDX3X^414-582 [2] is on record as “binds”.

B5: CK1δ-derived peptide δ-231 (peptide)
peptide: Biotin-SGSGKKMSTPIEVLCKGYP
notes: as for B2
Consider B5, for which, in the series with His-DDX3X^414-582 [2], the binding result was “binds”.

B6: CK1δ-derived peptide δ-1 (peptide)
peptide: Biotin-SGSGMELRVGNRYRLGRKI
notes: four amino acid spacer between biotin and the peptide; casein kinase 1 delta (CK1δ), human, UniProt P48730; also called P1; source: synthetic peptide (peptide library), pre-dissolved in DMSO; not shown: biotin, N-terminal, kept
Consider B6, for which the Kd with His-DDX3X^414-582 [3] was determined as 15.6 µM. The “increase of the melting temperature” value in the series with His-DDX3X^414-582 [1] stood at 3.5 °C.

B7: CK1ε-derived peptide ε-1 (peptide)
peptide: Biotin-SGSGMELRVGNKYRLGRKI
notes: four amino acid spacer between biotin and the peptide; casein kinase 1 epsilon (CK1ε), human, UniProt P49674; differs from δ-1 only by K for R in the middle of the peptide; source: synthetic peptide (peptide library), pre-dissolved in DMSO; not shown: biotin, N-terminal, kept
Consider B7, for which the “increase of the melting temperature” value with His-DDX3X^414-582 [1] stood at 4.6 °C.

B8: HA-CK1ε (enzyme, human, UniProt P49674 1-416, looked up)
chain: MELRVGNKYRLGRKIGSGSFGDIYLGANIASGEEVAIKLECVKTKHPQLHIESKFYKMMQGGVGIPSIKWCGAEGDYNVMVMELLGPSLEDLFNFCSRKFSLKTVLLLADQMISRIEYIHSKNFIHRDVKPDNFLMGLGKKGNLVYIIDFGLAKKYRDARTHQHIPYRENKNLTGTARYASINTHLGIEQSRRDDLESLGYVLMYFNLGSLPWQGLKAATKRQKYERISEKKMSTPIEVLCKGYPSEFSTYLNFCRSLRFDDKPDYSYLRQLFRNLFHRQGFSYDYVFDWNMLKFGAARNPEDVDRERREHEREERMGQLRGSATRALPPGPPTGATANRLRSAAEPVASTPASRIQPAGNTSPRAISRVDRERKVSMRLHRGAPANVSSSDLTGRQEVSRIPASQTSVPFDHLGK
notes: casein kinase 1 epsilon (CK1ε), human, UniProt P49674; The methods name a pCS-based vector with N-terminal HA tag for human cell culture work; also called bead-coupled HA-CK1ε; casein kinase 1 epsilon; source: bead-coupled; not shown: HA, N-terminal, kept
Turning to B8, the binding result in the series with Flag-DDX3X is “binds”.

B9: CK1δ-derived peptide δ-91 (peptide)
peptide: Biotin-SGSGDLFNFCSRKFSLKTV
notes: as for B2
As for B9, the binding result with His-DDX3X^414-582 [2] was “binds”.

B10: CK1δ-derived peptide δ-141 (peptide)
peptide: Biotin-SGSGKGNLVYIIDFGLAKK
notes: as for B2
As for B10, the binding result with His-DDX3X^414-582 [2] is “binds”.
